Our source for the percent reduction of binding by 10 μg/ml ARC1779 against saline values is paper PMC6761020.

This experiment has as its target Human Type IV Collagen (human) (UniProt P02462). The experiment can be described thus: ELISA. (In an ELISA, binding on a coated surface is turned into a signal by an enzyme label.)

Human Type IV Collagen (human), sequence (P02462 173-1669): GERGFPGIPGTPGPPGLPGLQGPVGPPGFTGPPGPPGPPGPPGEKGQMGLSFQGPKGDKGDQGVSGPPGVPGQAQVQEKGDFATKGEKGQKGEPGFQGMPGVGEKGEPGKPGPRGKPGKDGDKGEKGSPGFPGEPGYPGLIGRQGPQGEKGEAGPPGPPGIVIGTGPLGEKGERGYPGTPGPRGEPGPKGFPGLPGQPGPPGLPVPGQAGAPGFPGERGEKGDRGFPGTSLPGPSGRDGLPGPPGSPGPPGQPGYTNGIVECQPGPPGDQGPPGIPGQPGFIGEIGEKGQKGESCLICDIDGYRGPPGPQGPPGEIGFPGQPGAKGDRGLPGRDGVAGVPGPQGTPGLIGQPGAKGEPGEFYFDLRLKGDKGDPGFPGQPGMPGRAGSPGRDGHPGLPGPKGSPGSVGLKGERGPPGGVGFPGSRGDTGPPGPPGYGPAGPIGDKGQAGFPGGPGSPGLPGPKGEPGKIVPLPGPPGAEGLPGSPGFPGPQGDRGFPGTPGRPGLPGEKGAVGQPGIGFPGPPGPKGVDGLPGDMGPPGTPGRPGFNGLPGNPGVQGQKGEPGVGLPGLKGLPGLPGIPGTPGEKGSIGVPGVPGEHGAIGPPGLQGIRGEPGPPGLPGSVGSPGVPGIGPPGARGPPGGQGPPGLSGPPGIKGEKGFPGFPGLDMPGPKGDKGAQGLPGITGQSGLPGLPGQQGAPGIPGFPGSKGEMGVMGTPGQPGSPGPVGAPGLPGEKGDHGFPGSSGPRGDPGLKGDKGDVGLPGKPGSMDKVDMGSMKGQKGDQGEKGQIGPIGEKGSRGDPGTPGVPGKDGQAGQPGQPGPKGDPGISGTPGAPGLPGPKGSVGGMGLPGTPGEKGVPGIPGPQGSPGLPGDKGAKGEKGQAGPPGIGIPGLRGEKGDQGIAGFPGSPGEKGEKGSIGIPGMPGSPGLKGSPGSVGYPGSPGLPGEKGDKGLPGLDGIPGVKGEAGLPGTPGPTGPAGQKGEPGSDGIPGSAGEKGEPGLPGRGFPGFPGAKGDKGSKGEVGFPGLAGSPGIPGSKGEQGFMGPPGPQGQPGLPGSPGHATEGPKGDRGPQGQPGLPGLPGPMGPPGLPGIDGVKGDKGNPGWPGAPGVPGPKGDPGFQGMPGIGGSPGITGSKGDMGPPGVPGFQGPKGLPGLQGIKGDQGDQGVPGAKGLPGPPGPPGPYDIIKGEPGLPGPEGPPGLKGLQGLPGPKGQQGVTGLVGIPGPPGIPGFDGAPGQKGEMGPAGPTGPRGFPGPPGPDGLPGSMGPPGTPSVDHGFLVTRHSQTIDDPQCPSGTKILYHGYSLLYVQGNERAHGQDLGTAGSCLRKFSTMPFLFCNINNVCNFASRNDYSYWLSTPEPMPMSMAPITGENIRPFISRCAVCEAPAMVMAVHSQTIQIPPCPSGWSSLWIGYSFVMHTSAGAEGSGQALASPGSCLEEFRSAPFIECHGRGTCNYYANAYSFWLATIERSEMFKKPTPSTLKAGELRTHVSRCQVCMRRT

“von Willebrand factor (human, plasma) (from UniProt P04275 764-2813) (natural protein)” returned a percent reduction of binding by 10 μg/ml ARC1779 against saline of 34%.
